{"source": "paper doi:10.1101/2025.11.13.687974", "key": {"[1]": {"target": "MBP-tagged chromoshadow domain (CSD) of wild-type HPL-2 (Caenorhabditis elegans)", "assay": "mass photometry"}, "[2]": {"target": "human HP1β chromoshadow domain (CSD) (human)", "assay": "mass photometry"}, "[3]": {"target": "biotinylated 12-mer H3K9me3 chromatin arrays (histone octamers with H3K9me3 on 12x200-601 DNA) (Xenopus laevis | not stated)", "assay": "pull-down"}}, "data": [{"molecule": "MBP-tagged chromoshadow domain (CSD) of wild-type HPL-2 (domain or fragment)", "values": [{"measurement": "percent dimers", "setting": "[1]", "result": 67, "unit": "%"}, {"measurement": "percent monomers", "setting": "[1]", "result": 32, "unit": "%"}, {"measurement": "stoichiometry N", "setting": "[1]", "result": 2}]}, {"molecule": "human HP1β chromoshadow domain (CSD) (domain or fragment)", "values": [{"measurement": "percent dimers", "setting": "[2]", "result": 97, "unit": "%"}, {"measurement": "stoichiometry N", "setting": "[2]", "result": 2}]}, {"molecule": "C. elegans HPL-2, wild-type recombinant protein (natural protein) MSSKSTKRAKIEDPKDNVFMVEKVLDKRTGKAGRDEFLIQWQGFPESDSSWEPRENLQCVEMLDEFEREFSKREKPIRKRHSQKPEPSEDQADPEEDKDEKKETNQNDKFSLEGKQLKCIVGLTKGPGELHFLCKFSDDTARLLPAKEVNSRYPSQVIRYYESKLTIQDPKADEL", "values": [{"measurement": "fold enrichment on H3K9me3 arrays relative to unmodified arrays", "setting": "[3]", "result": 3, "unit": "fold"}]}]}
